# Values quoted from earlier work in US5916869A, “Method of treating birds in ovo” (North Carolina State University, priority 1997, dated 1999).
# B1: recombinant bovine growth hormone (protein, UniProt P01246 27-217, looked up)
# Somatotropin: AFPAMSLSGLFANAVLRAQHLHQLAADTFKEFERTYIPEGQRYSIQNTQVAFCFSETIPAPTGKNEAQQKSDLELLRISLLLIQSWLGPLQFLSRVFTNSLVFGTSDRVYEKLKDLEEGILALMRELEDGTPRAGQILKQTYDKFDTNMRSDDALLKNYGLLSCFRKDLHKTETYLRVMKCRRFGEASCAF
# notes: recombinant bovine growth hormone injected into sheep in a cited study
# Tested on: sodium-dependent duodenal active transport
# Conditions: sheep, injected
molecule,measurement,value
B1,increase of sodium-dependent duodenal active transport of glucose,approximately 60%
same,increase of transport of proline,approximately 30%
